# From patent US20190092852A1 (Genentech, published 2019)
# T1: human IL-33 N-His (human)
# T1 chain: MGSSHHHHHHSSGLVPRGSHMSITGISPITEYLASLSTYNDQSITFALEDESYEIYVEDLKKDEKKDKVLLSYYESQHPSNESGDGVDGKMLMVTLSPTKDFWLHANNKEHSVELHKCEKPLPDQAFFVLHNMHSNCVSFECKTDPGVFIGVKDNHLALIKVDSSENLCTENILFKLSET
# T2: cyno IL-33 (construct not stated) (cynomolgus monkey, UniProt A0A2K5W3I1 112-269)
# T2 construct: also called cynomolgus IL-33; cyno IL-33 (Genentech)
# T2 sequence: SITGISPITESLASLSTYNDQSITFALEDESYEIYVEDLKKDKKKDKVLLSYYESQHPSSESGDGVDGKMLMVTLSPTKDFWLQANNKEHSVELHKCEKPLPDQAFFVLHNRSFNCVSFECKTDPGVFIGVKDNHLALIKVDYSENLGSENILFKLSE
# T3: human IL-33 (construct not stated) (human, UniProt O95760 112-270)
# T3 construct: also called human IL-33 (Genentech); recombinant human IL33
# T3 sequence (looked up): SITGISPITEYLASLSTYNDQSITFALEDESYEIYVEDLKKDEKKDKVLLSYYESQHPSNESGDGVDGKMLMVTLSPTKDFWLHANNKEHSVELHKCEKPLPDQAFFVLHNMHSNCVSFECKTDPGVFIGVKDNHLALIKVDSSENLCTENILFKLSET
# B1: 10C12.38.H6.87Y.58I/IL-13 IgG4 (bispecific antibody)
# heavy 1: EVQLVESGGGLVQPGGSLRLSCAASGFTFSSFSMSWVRQAPGKGLEWVATISGGKTFTDYVDSVKGRFTISRDDSKNTLYLQMNSLRAEDTAVYYCTRANYGNWFFEVWGQGTLVTVSSASTKGPSVFPLAPCSRSTSESTAALGCLVKDYFPEPVTVSWNSGALTSGVHTFPAVLQSSGLYSLSSVVTVPSSSLGTKTYTCNVDHKPSNTKVDKRVESKYGPPCPPCPAPEFLGGPSVFLFPPKPKDTLMISRTPEVTCVVVDVSQEDPEVQFNWYVDGVEVHNAKTKPREEQFNSTYRVVSVLTVLHQDWLNGKEYKCKVSNKGLPSSIEKTISKAKGQPREPQVYTLPPSQEEMTKNQVSLSCAVKGFYPSDIAVEWESNGQPENNYKTTPPVLDSDGSFFLVSRLTVDKSRWQEGNVFSCSVMHEALHNHYTQKSLSLSLG
# light 1: EIVLTQSPATLSLSPGERATLSCRASESVAKYGLSLLNWFQQKPGQPPRLLIFAASNRGSGIPARFSGSGSGTDFTLTISSLEPEDFAVYYCQQSKEVPFTFGQGTKVEIKRTVAAPSVFIFPPSDEQLKSGTASVVCLLNNFYPREAKVQWKVDNALQSGNSQESVTEQDSKDSTYSLSSTLTLSKADYEKHKVYACEVTHQGLSSPVTKSFNRGEC
# heavy 2: not shown
# light 2: DIVLTQSPDSLSVSLGERATINCRASKSVDSYGNSFMHWYQQKPGQPPKLLIYLASNLESGVPDRFSGSGSGTDFTLTISSLQAEDVAVYYCQQNNEDPRTFGGGTKVEIKRTVAAPSVFIFPPSDEQLKSGTASVVCLLNNFYPREAKVQWKVDNALQSGNSQESVTEQDSKDSTYSLSSTLTLSKADYEKHKVYACEVTHQGLSSPVTKSFNRGEC
# notes: Knob-in-hole human IgG4 made in E. coli: anti-IL-33 arm as hole, anti-IL-13 arm (lebrikizumab CDRs; Q1E heavy, M4L light) as knob; also called 10C12-IL-13 KIH IgG4; 10C12-IL13 KIH IgG4
# Tests used:
# [1] = biological target: T1, human IL-33 N-His; assay: cell-based or functional assay
# [2] = biological target: T2, cyno IL-33 (construct not stated); assay: SPR Biacore 3000, captured by anti-human Fab, 25 C, mean of three lots
# Protocol: (§1) The binding kinetics of the bispecific antibody 10C12-IL-13 KIH IgG4 to human IL-33, cyno IL-33, and human IL-13 was assessed using BIACORE® 3000 SPR (FIG. 20).
# (§2) The binding kinetics of the bispecific antibody 10C12-IL13 KIH IgG4 to human IL-33, cyno IL-33, and human IL-13 was assessed using SPR on a BIACORE® 3000 (GE Healthcare). Anti-human Fab (GE Healthcare) was immobilized on a CM5 sensor chip via amine-based coupling according to the manufacturer's protocol. The bispecific antibody was captured and binding was measured to human IL-33 (Genentech), cyno IL-33 (Genentech), and human IL-13 (Peprotech). […] Sensograms for binding of cytokine were recorded using an injection time of 2 min with a flow rate of 30 μl/min, at a temperature of 25° C., and with a running buffer of 10 mM HEPES, pH 7.4, 150 mM NaCl, 3 mM EDTA, and 0.005% TWEEN®-20. After injection, disassociation of the ligand from the antibody was monitored for 600 sec in running buffer. The surface was regenerated between binding cycles with a 40 μl injection of 10 mM Glycine-HCl pH 2.1. After subtraction of a blank which contained running buffer only, sensograms observed for cytokine binding to the bispecific antibody were analyzed using a 1:1 Langmuir binding model with software supplied by the manufacturer to calculate the kinetics and binding constants, including the dissociation constant (KD).
# [3] = biological target: T3, human IL-33 (construct not stated); assay: as above
# Protocol: as §1, §2
# [4] = biological target: T4, human IL-13 (Peprotech) (human, UniProt P35225 35-146); assay: as above
# Protocol: as §1, §2
# [5] = biological target: T2, cyno IL-33 (construct not stated); assay: SPR, BIACORE 3000, antibody captured on anti-human Fab, 25 C, 1:1 Langmuir model; lot 1
# Protocol: as §2
# [6] = biological target: T3, human IL-33 (construct not stated); assay: as above
# Protocol: as §2
# [7] = biological target: T4, human IL-13 (Peprotech); assay: as above
# Protocol: as §2
# [8] = biological target: T2, cyno IL-33 (construct not stated); assay: SPR, BIACORE 3000, antibody captured on anti-human Fab, 25 C, 1:1 Langmuir model; lot 3
# Protocol: as §2
# [9] = biological target: T3, human IL-33 (construct not stated); assay: as above
# Protocol: as §2
# [10] = biological target: T4, human IL-13 (Peprotech); assay: as above
# Protocol: as §2
# [11] = biological target: T2, cyno IL-33 (construct not stated); assay: SPR, BIACORE 3000, antibody captured on anti-human Fab, 25 C, 1:1 Langmuir model; lot 2
# Protocol: as §2
# [12] = biological target: T3, human IL-33 (construct not stated); assay: as above
# Protocol: as §2
# [13] = biological target: T4, human IL-13 (Peprotech); assay: as above
# Protocol: as §2
# [14] = biological target: T3, human IL-33 (construct not stated); assay: cell-based or functional assay
# T4 sequence (P35225 35-146 limits assumed): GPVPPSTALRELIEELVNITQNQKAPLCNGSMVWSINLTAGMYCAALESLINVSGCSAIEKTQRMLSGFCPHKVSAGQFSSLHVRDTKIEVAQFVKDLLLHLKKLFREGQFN
binder,measurement,setting,value
B1,"IC50; SEAP reporter, HEK-BLUE IL-33 cells, 15 pM human IL-33 N-His, 20 h",[1],25.4 pM
same,Kd,[2],0.076 nM
same,Kd,[3],0.025 nM
same,Kd,[4],< 0.01 nM
same,Kd,[5],0.107 nM
same,koff,[5],7.2e-05 s⁻¹
same,kon,[5],670000 M⁻¹ s⁻¹
same,Kd,[6],0.01 nM
same,koff,[6],1.1e-05 s⁻¹
same,kon,[6],1.1e+06 M⁻¹ s⁻¹
same,Kd,[7],< 0.01 nM
same,koff,[7],2e-06 s⁻¹
same,kon,[7],1.49e+06 M⁻¹ s⁻¹
same,Kd,[8],0.059 nM
same,koff,[8],4.1e-05 s⁻¹
same,kon,[8],700000 M⁻¹ s⁻¹
same,Kd,[9],0.041 nM
same,koff,[9],4e-05 s⁻¹
same,kon,[9],990000 M⁻¹ s⁻¹
same,Kd,[10],< 0.01 nM
same,koff,[10],6e-06 s⁻¹
same,kon,[10],1.45e+06 M⁻¹ s⁻¹
same,Kd,[11],0.062 nM
same,koff,[11],4e-05 s⁻¹
same,kon,[11],650000 M⁻¹ s⁻¹
same,Kd,[12],0.026 nM
same,koff,[12],3e-05 s⁻¹
same,kon,[12],1.14e+06 M⁻¹ s⁻¹
same,Kd,[13],< 0.01 nM
same,koff,[13],4e-06 s⁻¹
same,kon,[13],1.47e+06 M⁻¹ s⁻¹
same,"IC50 (read off the curve); phospho-p38 MFI in CD123+ basophils (average from 2 donors), 10 ng/ml IL-33",[14],~0.5 nM
